{"source": "patent US20050272659A1", "about": "(BRIGHAM AND WOMEN S HOSPITAL, published 2005)", "binders": {"B1": {"name": "Boc-Gly-Val-Aib-Ile-Ala-Thr(OBz)-Aib-Ile-Val-Aib-OMe (SEQ ID NO:5), all-L (peptide)", "peptide": "Boc-GV[Aib]IA[Thr(OBz)][Aib]IV[Aib]-OMe"}, "B2": {"name": "D-peptide Boc-Val-Gly-Aib-Val-Val-Ile-Aib-Thr(OBz)-Val-Aib-Val-Ile-Aib-OMe (SEQ ID NO:18) (peptide)", "peptide": "Boc-[dV]G[Aib][dV][dV][dI][Aib][dThr(OBz)][dV][Aib][dV][dI][Aib]-OMe", "SMILES": "CC[C@@H](C)[C@@H](NC(=O)[C@H](NC(=O)[C@H](NC(=O)C(C)(C)NC(=O)CNC(=O)[C@H](NC(=O)OC(C)(C)C)C(C)C)C(C)C)C(C)C)C(=O)NC(C)(C)C(=O)N[C@@H](C(=O)N[C@@H](C(=O)NC(C)(C)C(=O)N[C@@H](C(=O)N[C@@H](C(=O)NC(C)(C)C(=O)OC)[C@H](C)CC)C(C)C)C(C)C)[C@H](C)OCc1ccccc1"}, "B3": {"name": "L-peptide Boc-Aib-Val-Gly-Aib-Val-Val-Ile-Aib-Thr(OBz)-Val-Aib-Val-Ile-Aib-OMe (SEQ ID NO:19) (peptide)", "peptide": "Boc-[Aib]VG[Aib]VVI[Aib][Thr(OBz)]V[Aib]VI[Aib]-OMe"}, "B4": {"name": "D-peptide Boc-Leu-Aib-Val-Gly-Aib-Val-Val-Ile-Aib-Thr(OBz)-Val-Aib-Val-Ile-Aib-OMe (SEQ ID NO:20) (peptide)", "peptide": "Boc-[dL][Aib][dV]G[Aib][dV][dV][dI][Aib][dThr(OBz)][dV][Aib][dV][dI][Aib]-OMe", "SMILES": "CC[C@@H](C)[C@@H](NC(=O)[C@H](NC(=O)[C@H](NC(=O)C(C)(C)NC(=O)CNC(=O)[C@H](NC(=O)C(C)(C)NC(=O)[C@@H](CC(C)C)NC(=O)OC(C)(C)C)C(C)C)C(C)C)C(C)C)C(=O)NC(C)(C)C(=O)N[C@@H](C(=O)N[C@@H](C(=O)NC(C)(C)C(=O)N[C@@H](C(=O)N[C@@H](C(=O)NC(C)(C)C(=O)OC)[C@H](C)CC)C(C)C)C(C)C)[C@H](C)OCc1ccccc1"}, "B5": {"name": "D-peptide Boc-Aib-Val-Val-Ile-Aib-Thr(OBz)-Val-Aib-Val-Ile-Aib-OMe (SEQ ID NO:16) (peptide)", "peptide": "Boc-[Aib][dV][dV][dI][Aib][dThr(OBz)][dV][Aib][dV][dI][Aib]-OMe", "SMILES": "CC[C@@H](C)[C@@H](NC(=O)[C@H](NC(=O)[C@H](NC(=O)C(C)(C)NC(=O)OC(C)(C)C)C(C)C)C(C)C)C(=O)NC(C)(C)C(=O)N[C@@H](C(=O)N[C@@H](C(=O)NC(C)(C)C(=O)N[C@@H](C(=O)N[C@@H](C(=O)NC(C)(C)C(=O)OC)[C@H](C)CC)C(C)C)C(C)C)[C@H](C)OCc1ccccc1"}, "B6": {"name": "L-peptide Boc-Gly-Leu-Aib-Val-Gly-Aib-Val-Val-Ile-Aib-Thr(OBz)-Val-Aib-Val-Ile-Aib-OMe (SEQ ID NO:21) (peptide)", "peptide": "Boc-GL[Aib]VG[Aib]VVI[Aib][Thr(OBz)]V[Aib]VI[Aib]-OMe"}, "B7": {"name": "Boc-Aib-Ala-Leu-Aib-Ala-Leu-Aib-Ala-Leu-Aib-OMe (SEQ ID NO:13) (peptide)", "peptide": "Boc-[Aib]AL[Aib]AL[Aib]AL[Aib]-OMe", "SMILES": "COC(=O)C(C)(C)NC(=O)[C@H](CC(C)C)NC(=O)[C@H](C)NC(=O)C(C)(C)NC(=O)[C@H](CC(C)C)NC(=O)[C@H](C)NC(=O)C(C)(C)NC(=O)[C@H](CC(C)C)NC(=O)[C@H](C)NC(=O)C(C)(C)NC(=O)OC(C)(C)C"}, "B8": {"name": "Boc-Val-Val-Ile-Aib-Thr(OBz)-Val-Aib-OMe (SEQ ID NO:7), all-L (peptide)", "peptide": "Boc-VVI[Aib][Thr(OBz)]V[Aib]-OMe"}, "B9": {"name": "Boc-Gly-Aib-Val-Val-Ile-Aib-Thr(OBz)-Val-Aib-OMe (SEQ ID NO:9), all-L (peptide)", "peptide": "Boc-G[Aib]VVI[Aib][Thr(OBz)]V[Aib]-OMe"}, "B10": {"name": "D-peptide Boc-Aib-Val-Gly-Aib-Val-Val-Ile-Aib-Thr(OBz)-Val-Aib-Val-Ile-Aib-OMe (SEQ ID NO:19) (peptide)", "peptide": "Boc-[Aib][dV]G[Aib][dV][dV][dI][Aib][dThr(OBz)][dV][Aib][dV][dI][Aib]-OMe", "SMILES": "CC[C@@H](C)[C@@H](NC(=O)[C@H](NC(=O)[C@H](NC(=O)C(C)(C)NC(=O)CNC(=O)[C@H](NC(=O)C(C)(C)NC(=O)OC(C)(C)C)C(C)C)C(C)C)C(C)C)C(=O)NC(C)(C)C(=O)N[C@@H](C(=O)N[C@@H](C(=O)NC(C)(C)C(=O)N[C@@H](C(=O)N[C@@H](C(=O)NC(C)(C)C(=O)OC)[C@H](C)CC)C(C)C)C(C)C)[C@H](C)OCc1ccccc1"}, "B11": {"name": "Boc-D-Val-Gly-Aib-D-Val-D-Val-D-BPA-Aib-D-Thr(OBz)-D-Val-Aib-OMe (SEQ ID NO:11) (peptide)", "peptide": "Boc-[dV]G[Aib][dV][dV][dBpa][Aib][dThr(OBz)][dV][Aib]-OMe", "SMILES": "COC(=O)C(C)(C)NC(=O)[C@H](NC(=O)[C@H](NC(=O)C(C)(C)NC(=O)[C@@H](Cc1ccc(C(=O)c2ccccc2)cc1)NC(=O)[C@H](NC(=O)[C@H](NC(=O)C(C)(C)NC(=O)CNC(=O)[C@H](NC(=O)OC(C)(C)C)C(C)C)C(C)C)C(C)C)[C@H](C)OCc1ccccc1)C(C)C"}, "B12": {"name": "Boc-Ile-Ala-Thr(OBz)-Aib-Ile-Val-Aib-OMe (SEQ ID NO:2), all-L (peptide)", "peptide": "Boc-IA[Thr(OBz)][Aib]IV[Aib]-OMe"}, "B13": {"name": "L-peptide Boc-Aib-Val-Val-Ile-Aib-Thr(OBz)-Val-Aib-Val-Ile-Aib-OMe (SEQ ID NO:16) (peptide)", "peptide": "Boc-[Aib]VVI[Aib][Thr(OBz)]V[Aib]VI[Aib]-OMe"}}, "assay_in_all_cases": "cell-based or functional assay", "key": {"[1]": {"biological_target": "T1, γ-secretase in Chinese hamster ovary (CHO) cells stably transfected with human APP"}, "[2]": {"biological_target": "T1, γ-secretase in Chinese hamster ovary …", "remark": "listed apart in the source"}, "[3]": {"biological_target": "γ-secretase (detergent-solubilized membranes from HeLa cells)"}}, "note": "Starred links: 1 amine or outer side, 2 acyl side, 3 side chain; linkers in the order of their positions; H or OH if unused. Non-standard residues stand in square brackets, D forms with d. *: point of attachment. dThr(OBz) = D-threonine with an O-benzyl (OBz) group, C[C@H](OCc1ccccc1)[C@@H](N[*:1])C(=O)[*:2]; Thr(OBz) = threonine with O-benzyl ester (OBz); dBpa = N[C@H](Cc1ccc(C(=O)c2ccccc2)cc1)C(=O)O; Boc = CC(C)(C)OC(=O)*; Aib = CC(C)(N)C(=O)O", "data": [{"binder": "B1", "values": [{"measurement": "IC50 (concentration that reduced production of total Aβ by 50% in CHO cells stably transfected with human APP)", "setting": "[1]", "result": 5, "unit": "µM"}]}, {"binder": "B2", "values": [{"measurement": "IC50 in a cell-based assay from APP-transfected CHO cells", "setting": "[2]", "result": 0.009, "unit": "µM"}, {"measurement": "Cell-free Assay IC50 (concentration required for 50% inhibition of Aβ40 production)", "setting": "[3]", "result": 0.00014, "unit": "µM"}]}, {"binder": "B3", "values": [{"measurement": "Cell-free Assay IC50 (concentration required for 50% inhibition of Aβ40 production)", "setting": "[3]", "result": 0.91, "unit": "µM"}]}, {"binder": "B4", "values": [{"measurement": "Cell-free Assay IC50 (concentration required for 50% inhibition of Aβ40 production)", "setting": "[3]", "result": 0.016, "unit": "µM"}]}, {"binder": "B5", "values": [{"measurement": "Cell-free Assay IC50 (concentration required for 50% inhibition of Aβ40 production)", "setting": "[3]", "result": 0.028, "unit": "µM"}]}, {"binder": "B6", "values": [{"measurement": "Cell-free Assay IC50 (concentration required for 50% inhibition of Aβ40 production)", "setting": "[3]", "result": 11, "unit": "µM"}]}, {"binder": "B7", "values": [{"measurement": "IC50 of Aβ production in APP-transfected cells", "setting": "[2]", "result": 2, "unit": "µM"}]}, {"binder": "B8", "values": [{"measurement": "IC50 (concentration that reduced production of total Aβ by 50% in CHO cells stably transfected with human APP)", "setting": "[1]", "result": 6, "unit": "µM"}]}, {"binder": "B9", "values": [{"measurement": "IC50 (concentration that reduced production of total Aβ by 50% in CHO cells stably transfected with human APP)", "setting": "[1]", "result": 3, "unit": "µM"}]}, {"binder": "B10", "values": [{"measurement": "Cell-free Assay IC50 (concentration required for 50% inhibition of Aβ40 production)", "setting": "[3]", "result": 0.014, "unit": "µM"}]}, {"binder": "B11", "values": [{"measurement": "IC50 in the same cell-based assay using CHO cells stably transfected with human APP (total Aβ production)", "setting": "[2]", "result": 0.1, "unit": "µM"}]}, {"binder": "B12", "values": [{"measurement": "IC50 (concentration that reduced production of total Aβ by 50% in CHO cells stably transfected with human APP)", "setting": "[1]", "result": 15, "unit": "µM"}]}, {"binder": "B13", "values": [{"measurement": "Cell-free Assay IC50 (concentration required for 50% inhibition of Aβ40 production)", "setting": "[3]", "result": 3.1, "unit": "µM"}]}]}
